# Laboratory results from paper PMC12714136, “14-3-3θ phosphorylation at S232 reduces its interactome and regulates axonal trafficking” (Disease Models & Mechanisms, 2025).
# T1: nuclear distribution protein nude-like 1 (M17 neuroblastoma cells) (human (endogenous in SK-N-BE(2)-M17), UniProt Q9GZM8 1-345)
# T1 construct: nuclear distribution protein nudE-like 1, endogenous in SK-N-BE(2)-M17 cells; also called NDEL1; source: endogenous, SK-N-BE(2)-M17 neuroblastoma cells (fixed cells)
# T1 sequence (looked up): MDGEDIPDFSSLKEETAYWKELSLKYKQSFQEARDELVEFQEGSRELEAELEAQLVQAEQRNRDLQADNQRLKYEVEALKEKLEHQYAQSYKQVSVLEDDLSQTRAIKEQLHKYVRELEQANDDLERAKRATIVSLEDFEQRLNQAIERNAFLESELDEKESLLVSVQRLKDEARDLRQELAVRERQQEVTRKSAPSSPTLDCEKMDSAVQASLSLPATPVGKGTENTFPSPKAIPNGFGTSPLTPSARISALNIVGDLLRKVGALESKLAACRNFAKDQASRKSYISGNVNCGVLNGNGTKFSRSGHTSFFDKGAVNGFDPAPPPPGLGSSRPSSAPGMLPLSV
# B1: V5-tagged 14-3-3θ S232A (natural protein, UniProt P27348 1-245, looked up)
# chain: MEKTELIQKAKLAEQAERYDDMATCMKAVTEQGAELSNEERNLLSVAYKNVVGGRRSAWRVISSIEQKTDTSDKKLQLIKDYREKVESELRSICTTVLELLDKYLIANATNPESKVFYLKMKGDYFRYLAEVACGDDRKQTIDNSQGAYQEAFDISKKEMQPTHPIRLGLALNFSVFYYEILNNPELACTLAKTAFDEAIAELDTLNEDSYKDSTLIMQLLRDNLTLWTSDAAGEECDAAEGAEN
# notes: 14-3-3 protein theta with S232A; also called V5-14-3-3θ phospho-mutant S232A; source: SK-N-BE(2)-M17 cells, stably transfected (fixed cells)
# Target: T1, nuclear distribution protein nude-like …
# Assay: proximity ligation; fixed M17 cells stably expressing V5-tagged 14-3-3θ S232A or S232D; anti-V5 with anti-NDEL1 or anti-BCR antibody; DuoLink probes; objects per area, normalised
# Settings: partners not purified
binder,measurement,value
B1,fold PLA signal against S232D,~2 fold
